This note sets out measurements from PMC7610691 (Nature structural & molecular biology, 2020).

Assay [1] deals with T1, Ycs4 (S. cerevisiae condensin HEAT-repeat subunit) (S. cerevisiae, UniProt Q06156 1-1176).
T1 sequence: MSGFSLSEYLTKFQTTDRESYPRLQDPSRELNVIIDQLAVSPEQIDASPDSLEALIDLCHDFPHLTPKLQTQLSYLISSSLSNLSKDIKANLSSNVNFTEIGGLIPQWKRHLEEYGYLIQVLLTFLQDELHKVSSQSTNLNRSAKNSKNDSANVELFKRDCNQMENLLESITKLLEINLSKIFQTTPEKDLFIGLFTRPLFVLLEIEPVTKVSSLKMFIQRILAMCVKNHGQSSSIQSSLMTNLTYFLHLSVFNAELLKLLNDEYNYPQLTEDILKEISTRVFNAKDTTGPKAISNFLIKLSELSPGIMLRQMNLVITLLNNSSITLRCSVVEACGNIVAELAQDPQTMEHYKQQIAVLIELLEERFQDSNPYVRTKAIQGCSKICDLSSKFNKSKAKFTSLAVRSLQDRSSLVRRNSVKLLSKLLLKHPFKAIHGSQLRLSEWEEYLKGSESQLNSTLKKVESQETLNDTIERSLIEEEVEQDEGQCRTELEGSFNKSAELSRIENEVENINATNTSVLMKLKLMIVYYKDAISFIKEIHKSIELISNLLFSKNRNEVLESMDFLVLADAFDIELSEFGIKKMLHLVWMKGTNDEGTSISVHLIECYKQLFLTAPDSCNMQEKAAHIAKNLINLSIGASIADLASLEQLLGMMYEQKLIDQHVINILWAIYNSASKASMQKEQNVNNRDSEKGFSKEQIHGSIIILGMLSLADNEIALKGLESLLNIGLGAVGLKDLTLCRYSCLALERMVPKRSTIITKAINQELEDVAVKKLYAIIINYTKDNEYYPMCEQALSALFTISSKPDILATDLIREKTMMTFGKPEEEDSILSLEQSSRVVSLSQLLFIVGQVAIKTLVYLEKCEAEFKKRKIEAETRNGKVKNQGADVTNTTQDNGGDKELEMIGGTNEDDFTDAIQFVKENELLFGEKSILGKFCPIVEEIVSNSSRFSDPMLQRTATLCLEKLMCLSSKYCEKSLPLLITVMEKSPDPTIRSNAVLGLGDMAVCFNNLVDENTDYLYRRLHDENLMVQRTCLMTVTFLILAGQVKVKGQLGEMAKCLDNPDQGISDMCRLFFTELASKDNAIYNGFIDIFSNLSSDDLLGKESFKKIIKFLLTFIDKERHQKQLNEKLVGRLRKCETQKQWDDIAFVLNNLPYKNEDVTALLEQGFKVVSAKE
The assay is described as follows: cryo-EM structure.

Assay [2] has as its target T2, Smc4 (S. cerevisiae condensin subunit) (S. cerevisiae, UniProt Q12267 1-1418).
T2 sequence: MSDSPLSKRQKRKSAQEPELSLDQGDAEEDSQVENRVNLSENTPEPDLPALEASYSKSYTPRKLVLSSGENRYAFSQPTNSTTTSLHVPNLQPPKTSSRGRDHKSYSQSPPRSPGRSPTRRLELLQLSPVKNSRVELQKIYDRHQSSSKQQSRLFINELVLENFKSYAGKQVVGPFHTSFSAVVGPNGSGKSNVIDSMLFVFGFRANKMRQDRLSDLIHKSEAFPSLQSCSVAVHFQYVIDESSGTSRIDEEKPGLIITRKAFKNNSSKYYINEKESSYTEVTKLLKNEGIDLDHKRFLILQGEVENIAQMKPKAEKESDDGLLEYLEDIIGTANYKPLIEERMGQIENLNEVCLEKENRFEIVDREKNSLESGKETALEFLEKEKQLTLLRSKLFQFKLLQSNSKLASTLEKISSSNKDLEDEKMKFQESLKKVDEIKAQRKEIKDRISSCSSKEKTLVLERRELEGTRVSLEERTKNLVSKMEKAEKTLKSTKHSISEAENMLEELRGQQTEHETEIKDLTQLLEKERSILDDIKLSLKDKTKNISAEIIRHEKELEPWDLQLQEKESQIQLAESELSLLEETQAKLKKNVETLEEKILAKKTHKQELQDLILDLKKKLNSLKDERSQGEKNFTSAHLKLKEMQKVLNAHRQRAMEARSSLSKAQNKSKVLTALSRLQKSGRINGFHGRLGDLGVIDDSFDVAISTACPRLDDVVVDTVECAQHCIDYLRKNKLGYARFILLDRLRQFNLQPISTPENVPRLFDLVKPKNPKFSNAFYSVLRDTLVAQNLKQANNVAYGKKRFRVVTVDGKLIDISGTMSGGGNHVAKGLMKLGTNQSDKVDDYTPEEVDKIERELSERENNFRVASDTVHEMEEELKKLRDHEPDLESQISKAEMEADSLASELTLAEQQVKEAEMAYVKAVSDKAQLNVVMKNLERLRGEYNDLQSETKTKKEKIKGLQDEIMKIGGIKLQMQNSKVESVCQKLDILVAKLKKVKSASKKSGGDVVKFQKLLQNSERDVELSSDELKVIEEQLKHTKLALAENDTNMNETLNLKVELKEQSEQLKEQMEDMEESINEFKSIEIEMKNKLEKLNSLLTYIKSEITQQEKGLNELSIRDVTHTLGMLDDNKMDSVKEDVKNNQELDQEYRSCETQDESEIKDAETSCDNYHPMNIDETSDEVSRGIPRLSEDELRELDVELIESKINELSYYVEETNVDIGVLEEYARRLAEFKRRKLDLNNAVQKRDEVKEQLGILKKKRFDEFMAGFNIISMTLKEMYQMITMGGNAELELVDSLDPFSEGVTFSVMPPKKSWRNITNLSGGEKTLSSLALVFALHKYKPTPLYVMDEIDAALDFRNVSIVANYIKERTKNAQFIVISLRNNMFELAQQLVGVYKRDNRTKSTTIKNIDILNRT
Briefly: cryo-EM structure.

B1: Brn1 (S. cerevisiae condensin kleisin subunit) (natural protein)
chain: MTTQLRYENNDDDERVEYNLFTNRSTMMANFEEWIKMATDNKINSRNSWNFALIDYFYDLDVLKDGENNINFQKASATLDGCIKIYSSRVDSVTTETGKLLSGLAQRKTNGASNGDDSNGGNGEGLGGDSDEANIEIDPLTGMPISNDPDVNNTRRRVYNRVLETTLVEFETIKMKELDQELIIDPLFKKALVDFDEGGAKSLLLNTLNIDNTARVIFDASIKDTQNVGQGKLQRKEEELIERDSLVDDENEPSQSLISTRNDSTVNDSVISAPSMEDEILSLGMDFIKFDQIAVCEISGSIEQLRNVVEDINQAKDFIENVNNRFDNFLTEEELQAAVPDNAEDDSDGFDMGMQQELCYPDENHDNTSHDEQDDDNVNSTTGSIFEKDLMAYFDENLNRNWRGREHWKVRNFKKANLVNKESDLLEETRTTIGDTTDKNTTDDKSMDTKKKHKQKKVLEIDFFKTDDSFEDKVFASKGRTKIDMPIKNRKNDTHYLLPDDFHFSTDRITRLFIKPGQKMSLFSHRKHTRGDVSSGLFEKSTVSANHSNNDIPTIADEHFWADNYERKEQEEKEKEQSKEVGDVVGGALDNPFEDDMDGVDFNQAFEGTDDNEEASVKLDLQDDEDHKFPIRENKVTYSRVSKKVDVRRLKKNVWRSINNLIQEHDSRKNREQSSNDSETHTEDESTKELKFSDIIQGISKMYSDDTLKDISTSFCFICLLHLANEHGLQITHTENYNDLIVNYEDLATTQAAS
As for B1, the binding result in assay [1] and in assay [2] was “binds” in each case.
